Measurements published in PMC12104086 (2025).

Legend:
Assay in all cases: SPR
[1] = target: T1, recombinant mouse cold-inducible RNA-binding protein (mouse, UniProt P60824 1-172)
T1 chain: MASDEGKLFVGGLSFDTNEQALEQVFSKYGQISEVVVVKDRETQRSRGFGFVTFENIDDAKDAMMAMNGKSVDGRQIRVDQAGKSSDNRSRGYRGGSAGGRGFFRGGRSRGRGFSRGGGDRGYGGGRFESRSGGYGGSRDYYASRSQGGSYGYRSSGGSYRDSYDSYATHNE

[2] = target: recombinant human histone H3 (human, UniProt P68431 1-136)
[3] = target: T2, recombinant human high mobility group box 1 (human, UniProt P09429 1-215)
T2 chain: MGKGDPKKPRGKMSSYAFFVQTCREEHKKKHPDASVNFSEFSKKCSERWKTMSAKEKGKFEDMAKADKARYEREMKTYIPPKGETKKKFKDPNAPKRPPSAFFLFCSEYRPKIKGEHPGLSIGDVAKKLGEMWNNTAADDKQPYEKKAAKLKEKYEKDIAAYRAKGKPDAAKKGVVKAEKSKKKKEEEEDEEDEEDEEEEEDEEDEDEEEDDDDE

[4] = target: T3, recombinant human alphavbeta3 integrin (human, UniProt P06756 31-1048; P05106 27-718)
T3 chain 1: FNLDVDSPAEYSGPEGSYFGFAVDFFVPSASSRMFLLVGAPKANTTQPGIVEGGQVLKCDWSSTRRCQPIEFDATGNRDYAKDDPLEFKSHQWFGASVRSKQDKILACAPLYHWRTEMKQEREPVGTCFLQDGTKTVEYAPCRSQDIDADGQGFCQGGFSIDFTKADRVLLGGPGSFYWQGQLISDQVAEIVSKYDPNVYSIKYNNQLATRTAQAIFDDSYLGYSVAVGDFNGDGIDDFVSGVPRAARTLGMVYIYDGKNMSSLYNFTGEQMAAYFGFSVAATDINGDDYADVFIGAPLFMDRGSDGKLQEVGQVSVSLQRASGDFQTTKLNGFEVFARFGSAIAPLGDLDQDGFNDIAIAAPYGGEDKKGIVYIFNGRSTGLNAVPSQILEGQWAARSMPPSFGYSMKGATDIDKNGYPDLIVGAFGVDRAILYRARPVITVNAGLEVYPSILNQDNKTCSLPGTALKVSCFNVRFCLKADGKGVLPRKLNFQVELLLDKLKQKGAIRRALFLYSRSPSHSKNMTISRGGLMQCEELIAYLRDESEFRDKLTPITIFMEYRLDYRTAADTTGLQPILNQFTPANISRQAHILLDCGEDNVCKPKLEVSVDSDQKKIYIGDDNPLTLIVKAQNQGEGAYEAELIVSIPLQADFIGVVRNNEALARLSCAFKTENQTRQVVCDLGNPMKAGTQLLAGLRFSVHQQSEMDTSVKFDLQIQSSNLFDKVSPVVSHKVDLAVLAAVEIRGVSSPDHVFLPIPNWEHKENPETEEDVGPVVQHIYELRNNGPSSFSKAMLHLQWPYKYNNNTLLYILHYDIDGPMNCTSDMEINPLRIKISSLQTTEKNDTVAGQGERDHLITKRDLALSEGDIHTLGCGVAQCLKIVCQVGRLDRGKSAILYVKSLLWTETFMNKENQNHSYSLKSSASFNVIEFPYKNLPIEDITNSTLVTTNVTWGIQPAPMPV
T3 chain 2: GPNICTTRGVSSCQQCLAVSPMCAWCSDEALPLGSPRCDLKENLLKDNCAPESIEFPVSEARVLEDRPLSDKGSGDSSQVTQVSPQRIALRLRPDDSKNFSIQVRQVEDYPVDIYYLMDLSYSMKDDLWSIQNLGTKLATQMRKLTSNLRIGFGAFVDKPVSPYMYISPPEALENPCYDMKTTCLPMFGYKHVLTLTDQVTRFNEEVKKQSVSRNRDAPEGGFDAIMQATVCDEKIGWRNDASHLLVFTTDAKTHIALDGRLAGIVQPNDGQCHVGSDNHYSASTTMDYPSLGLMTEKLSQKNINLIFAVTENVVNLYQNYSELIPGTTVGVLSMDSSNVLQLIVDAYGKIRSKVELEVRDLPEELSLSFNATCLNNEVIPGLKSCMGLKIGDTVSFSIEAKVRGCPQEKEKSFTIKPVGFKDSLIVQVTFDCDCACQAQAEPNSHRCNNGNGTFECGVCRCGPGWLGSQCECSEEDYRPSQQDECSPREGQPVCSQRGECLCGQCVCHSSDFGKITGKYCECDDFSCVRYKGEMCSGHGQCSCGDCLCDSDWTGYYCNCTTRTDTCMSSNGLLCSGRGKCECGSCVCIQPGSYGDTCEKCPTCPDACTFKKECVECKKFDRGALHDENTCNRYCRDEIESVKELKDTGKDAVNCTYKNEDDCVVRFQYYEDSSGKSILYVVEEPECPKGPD

Kd [1]: 1.5 nM
Kd [2]: 2.1 nM
Kd [3]: 3.9 nM
Kd [4]: 1.1 nM
Binder: GNFNSSNIMKTCLQNRGD [opsonic peptide 18]
